Holding throughout (assay type): cell-based, Yarrowia
The test system of assay [1] is olivetolic acid. Put plainly: GPS-APT fusions, OA feed in vivo assay (Example 11). In outline: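 Yeast strain sCL-SE-0128 carrying GPS1.1–APT73.77 fusion plasmids (N- or C-terminal, various linkers) was precultured 48 h, then grown in YNB/glucose/casamino acids/MES pH 6.5 with 2 mM olivetolic acid. After 48 h total growth, cultures were quenched with equal-volume ethanol and CBGA/FCBGA measured by HPLC-MS against internal standard.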

Assay [2] relates to olivetolic acid. The assay can be described thus: MPT4.1 with and without GPS1.1 fusion vs MPT4 fusion, in vivo assay (Example 5). Conditions: 3 mM olivetolic acid. As for the experimental part: As described below, plasmids pCL-SE-0337.MPT4.1 and pCL-SE-0753 were transformed into strain sCL-SE-0128. Multiple colonies per transformation were precultured for 24 h in YNB containing glucose (2%), casamino acids (0.5%), and MES (100 mM pH 6.5). Pre-culture was used to inoculate assay medium comprised of YNB containing glucose (6%), casamino acids (0.5%), MES (100 mM pH 6.5), and olivetolic acid (3 mM). Cultures were quenched with equal volume of ethanol after 48 h total growth and assayed for CBGA and FCBGA. Averages and standard deviations were calculated from replicates.
(§1) Overnight YPD (10 g/L yeast extract, 20 g/L peptone, 2% dextrose) cultures were inoculated from glycerol stocks of the appropriate strain and grown at 30° C. with 250 rpm shaking. Once cultures had reached an OD600 of 4-6, cultures were centrifuged at 500×g for 5 min, supernatants were discarded, and cell pellets were resuspended in equal volume of water. Resuspended cells were centrifuged at 500×g for 5 min, supernatants were discarded, and cells were resuspended in a volume (75 μL×OD×Vculture) of transformation cocktail (45% PEG-400, 0.1 M LiAc, 0.1 M DTT, and 25 ug/100 μL SS Salmon Sperm DNA). For each transformation, >1 μg of plasmid DNA was added to 55 μL cells/transformation cocktail and vortexed for 2 s. Transformations were incubated at 39° C. for 1 h with 250 rpm shaking. Transformations were resuspended in 750 μL YPD with 1 M sorbitol and recovered at 30° C. overnight with 250 rpm shaking. The next day, transformations were centrifuged at 500×g for 5 min, supernatants were discarded, and cell pellets were resuspended in 750 YPD. Resuspended transformations were plated on YPD with appropriate selection or YNBD (6.71 g/L yeast nitrogen base+nitrogen, 0.5% casamino acids, 2% dextrose) agar plates and grown at 30° C. for 2 days. Individual colonies were patched onto YPD plates with appropriate selection or YNBD plates and grown at 30° C. overnight. Patches were used to inoculate 0.5 mL YPD with appropriate selection or YNBD precultures in 96 w blocks and grown at 30° C. for 24-48 h with 1000 rpm shaking. For assays, 0.5 mL YPD with appropriate selection or YNBD cultures containing substrate were inoculated with 2 μL from precultures and grown at 30° C. for 2-4 days with 1000 rpm shaking with 2% glucose added every 24 h. Assay cultures were quenched by addition of 0.5 mL ethanol with 0.2% formic acid and 0.5 mg/mL pentyl-benzoic acid. Precipitates were pelleted by centrifuging at 4600×g for 10 min and then 200 μL was transferred to fresh plates, sealed, and analyzed via HPLC.
(§2) All samples were quenched with equal volume of EtOH containing 0.2 mg/mL internal standard (3,5-Diisopropyl-2-hydroxybenzoic acid CAS #2215-21-6) centrifuged, and clarified solutions were analyzed by HPLC-MS
(§3) • Column: 2.1×50 mm COSMOCORE PBr (Nacalai USA, Inc.) • Mobile Phase: A; 0.1% formic acid in water, B; 0.1% formic acid in acetonitrile • Flow: 0.45 mL/min • Temp: % 50 Celsius • Gradient: 20%B at 0 min, 70%B at 2.3 min, 89% B at 4.2 min, 20% B at 4.3 min, 20%B at 6 min

In another assay the test system is divarinic acid. The assay can be described thus: GPS1.1 fusions of MPT21 mutants, DVA feed (Example 9, Table 12). Conditions: 2 mM divarinic acid, 2% glucose, quenched after 48 h; strain sCL-SE-0128. As for the experimental part:
as §1, §2, §3

The test system of assay [3] is olivetolic acid. Put plainly: GPS1.1 fusions of MPT21 mutants, OA feed (Example 8, Table 10). Conditions: 3 mM olivetolic acid, 6% glucose, 48 h quench; strain sCL-SE-0128. As for the experimental part:
as §1, §2, §3

The mark [4] stands for this setting: olivetolic acid feed as in Example 8, 48 h quench, strain sCL-SE-0128.
The mark [5] stands for this setting: 6% glucose, 48 h quench, strain sCL-SE-0128.

B1: GPS1.1-F11-MPT4.1: fusion of GPS1.1 and MPT4.1 via F11 linker, SEQ ID NO: 56 (protein)
chain: MSKAKFESVFPRISEELVQLLRDEGLPQDAVQWFSDSLQYNCVGGKLNRGLSVVDTYQLLTGKKELDDEEYYRLALLGWLIELLQAFWLVSDDIMDESKTRRGQPCWYLKPKVGMIAIWDAFMLESGIYILLKKHFRQEKYYIDLVELFHDISFKTELGQLVDLLTAPEDEVDLNRFSLDKHSFIVRYKTAYYSFYLPVVLAMYVAGITNPKDLQQAMDVLIPLGEYFQVQDDYLDNFGDPEFIGKIGTDIQDNKCSWLVNKALQKATPEQRQILEDNYGVKDKSKELVIKKLYDDMKIEQDYLDYEEEVVGDIKKKIEQVDESRGFKKEVLNAFLAKIYKRQKGGAEAAAKEAAAKAGGSGGGSGGGGSGGSGGGGSGGGGSMSDNSIATKILNFGHTCWKLQRPYAVKGMISIACGLFGRELFNNRHLFSWGLMWKAFFALVPILSFNFFAAIMNQIYDVDIDRINKPDLPLVSGEMSIETAWILSIIVALTGLIVTIKLKSAPLFVFIYIFGIFAGFAYSVPPIRWKQYPFTNFLITISSHVGLAFTSYSATTSALGLPFVWRPAFSFIIAFMTVMGMTIAFAKDISDIEGDAKYGVSTVATKLGARNMTFVVSGVLLLNYLVSISIGIIWPQVFKSNIMILSHAILAFCLIFQTRELALANYASAPSRQFFEFIWLLYYAEYFVYVFI
modifications: GPS1.1-F11-MPT4.1, geranyl diphosphate synthase, point mutant membrane-bound prenyltransferase fusion protein
Turning to B1, the figures for the CBGA with olivetolic acid [1] (setting [4]), in the assay with olivetolic acid [2] (setting [5]) and in the assay on olivetolic acid [3] were 365 ± 22 µM, 425 ± 11 µM and 358 ± 0 µM, respectively. The FCBGA in the assay with olivetolic acid [1] (setting [4]) was 26 ± 1 µM; with olivetolic acid [2] (setting [5]), 34 ± 1 µM; with olivetolic acid [3] it was 27 ± 0 µM. Moreover, the CBGA/FCBG with olivetolic acid [1] (olivetolic acid feed, 48 h quench, product ratio) worked out at 14.3. In addition, in the assay with olivetolic acid [2] (48 h quench, product ratio), the CBGA/FCBGA is recorded as 12.6. In addition, the “increase of the titer of CBGA” value in the assay on olivetolic acid [2] (fusion vs unfused MPT4.1, 48 h) stood at 67%. The CBGVA in the assay on divarinic acid was 91 ± 6 µM. Besides, the FCBGVA with divarinic acid worked out at 0 ± 0 µM.

The values above are taken from patent publication US20240228986A1, “ENGINEERED CELLS, ENZYMES, AND METHODS FOR PRODUCING CANNABINOIDS” (priority 2021, published 2024).
